In paper PMC9174199, “Structural basis for MTA1c-mediated DNA N6-adenine methylation” (Nature Communications, 2022):

B1: His6GST-Tthp1 L173A (protein)
chain: MSLKKGKFQHNQSKSLWNYTLSPGWREEEVKILKSALQLFGIGKWKKIMESGCLPGKSIGQIYMQTQRLLGQQSLGDFMGLQIDLEAVFNQNMKKQDVLRKNNCIINTGDNPTKEERKRRIEQNRKIYGLSAKQIAEIKLPKVKKHAPQYMTLEDIENEKFTNLEILTHLYNAKAEIVRRLAEQGETIAQPSIIKSLNNLNHNLEQNQNSNSSTETKVTLEQSGKKKYKVLAIEETELQNGPIATNSQKKSINGKRKNNRKINSDSEGNEEDISLEDIDSQESEINSEEIVEDDEEDEQIEEPSKIKKRKKNPEQESEEDDIEEDQEEDELVVNEEEIFEDDDDDEDNQDSSEDDDDDED
B2: His6GST-Tthp1 L167A; L170A (protein)
chain: MSLKKGKFQHNQSKSLWNYTLSPGWREEEVKILKSALQLFGIGKWKKIMESGCLPGKSIGQIYMQTQRLLGQQSLGDFMGLQIDLEAVFNQNMKKQDVLRKNNCIINTGDNPTKEERKRRIEQNRKIYGLSAKQIAEIKLPKVKKHAPQYMTLEDIENEKFTNLEIATHAYNLKAEIVRRLAEQGETIAQPSIIKSLNNLNHNLEQNQNSNSSTETKVTLEQSGKKKYKVLAIEETELQNGPIATNSQKKSINGKRKNNRKINSDSEGNEEDISLEDIDSQESEINSEEIVEDDEEDEQIEEPSKIKKRKKNPEQESEEDDIEEDQEEDELVVNEEEIFEDDDDDEDNQDSSEDDDDDED
B3: His6GST-Tthp1 L167A (protein)
chain: MSLKKGKFQHNQSKSLWNYTLSPGWREEEVKILKSALQLFGIGKWKKIMESGCLPGKSIGQIYMQTQRLLGQQSLGDFMGLQIDLEAVFNQNMKKQDVLRKNNCIINTGDNPTKEERKRRIEQNRKIYGLSAKQIAEIKLPKVKKHAPQYMTLEDIENEKFTNLEIATHLYNLKAEIVRRLAEQGETIAQPSIIKSLNNLNHNLEQNQNSNSSTETKVTLEQSGKKKYKVLAIEETELQNGPIATNSQKKSINGKRKNNRKINSDSEGNEEDISLEDIDSQESEINSEEIVEDDEEDEQIEEPSKIKKRKKNPEQESEEDDIEEDQEEDELVVNEEEIFEDDDDDEDNQDSSEDDDDDED
B4: His6GST-Tthp1 I177A (protein)
chain: MSLKKGKFQHNQSKSLWNYTLSPGWREEEVKILKSALQLFGIGKWKKIMESGCLPGKSIGQIYMQTQRLLGQQSLGDFMGLQIDLEAVFNQNMKKQDVLRKNNCIINTGDNPTKEERKRRIEQNRKIYGLSAKQIAEIKLPKVKKHAPQYMTLEDIENEKFTNLEILTHLYNLKAEAVRRLAEQGETIAQPSIIKSLNNLNHNLEQNQNSNSSTETKVTLEQSGKKKYKVLAIEETELQNGPIATNSQKKSINGKRKNNRKINSDSEGNEEDISLEDIDSQESEINSEEIVEDDEEDEQIEEPSKIKKRKKNPEQESEEDDIEEDQEEDELVVNEEEIFEDDDDDEDNQDSSEDDDDDED
B5: His6GST-Tthp1 L167A; L170A; L173A (protein)
chain: MSLKKGKFQHNQSKSLWNYTLSPGWREEEVKILKSALQLFGIGKWKKIMESGCLPGKSIGQIYMQTQRLLGQQSLGDFMGLQIDLEAVFNQNMKKQDVLRKNNCIINTGDNPTKEERKRRIEQNRKIYGLSAKQIAEIKLPKVKKHAPQYMTLEDIENEKFTNLEIATHAYNAKAEIVRRLAEQGETIAQPSIIKSLNNLNHNLEQNQNSNSSTETKVTLEQSGKKKYKVLAIEETELQNGPIATNSQKKSINGKRKNNRKINSDSEGNEEDISLEDIDSQESEINSEEIVEDDEEDEQIEEPSKIKKRKKNPEQESEEDDIEEDQEEDELVVNEEEIFEDDDDDEDNQDSSEDDDDDED
B6: His6GST-Tthp1 L170A (protein)
chain: MSLKKGKFQHNQSKSLWNYTLSPGWREEEVKILKSALQLFGIGKWKKIMESGCLPGKSIGQIYMQTQRLLGQQSLGDFMGLQIDLEAVFNQNMKKQDVLRKNNCIINTGDNPTKEERKRRIEQNRKIYGLSAKQIAEIKLPKVKKHAPQYMTLEDIENEKFTNLEILTHAYNLKAEIVRRLAEQGETIAQPSIIKSLNNLNHNLEQNQNSNSSTETKVTLEQSGKKKYKVLAIEETELQNGPIATNSQKKSINGKRKNNRKINSDSEGNEEDISLEDIDSQESEINSEEIVEDDEEDEQIEEPSKIKKRKKNPEQESEEDDIEEDQEEDELVVNEEEIFEDDDDDEDNQDSSEDDDDDED
B7: His6GST-Tthp1 L167A; L170A; L173A; I177A (protein)
chain: MSLKKGKFQHNQSKSLWNYTLSPGWREEEVKILKSALQLFGIGKWKKIMESGCLPGKSIGQIYMQTQRLLGQQSLGDFMGLQIDLEAVFNQNMKKQDVLRKNNCIINTGDNPTKEERKRRIEQNRKIYGLSAKQIAEIKLPKVKKHAPQYMTLEDIENEKFTNLEIATHAYNAKAEAVRRLAEQGETIAQPSIIKSLNNLNHNLEQNQNSNSSTETKVTLEQSGKKKYKVLAIEETELQNGPIATNSQKKSINGKRKNNRKINSDSEGNEEDISLEDIDSQESEINSEEIVEDDEEDEQIEEPSKIKKRKKNPEQESEEDDIEEDQEEDELVVNEEEIFEDDDDDEDNQDSSEDDDDDED
B8: Paramecium tetraurelia MTA9 (PteMTA9), untagged V219A (protein)
chain: MGKNQRESLRMRLRYNEPGSENKRINYFKLNQGYDITEDDSEYMDEQDSYKAFKKIRKYKTKSKEDKVTCDNLEVLLQWKGSINCQSYETDQKKIVVLKKILGTDLSQYAKGVQGIFIDNLFKKDLKNLDISKKLISNGILFIWSDKSLINEILETMENKGFTYIENLVVVQLSLEQALEELNKHMKIEQTEDAVLDNLDFLQQKVQVKDLILHRPSKALNQSKQVLIMFRKFDEQKSQLELRHQRTPDVLFDIVNNGKSCLKTKEYIYQTIETLLPKSQLMEIFAQKDQPRKGWISVCENK
B9: Paramecium tetraurelia MTA9 (PteMTA9), untagged L220A (protein)
chain: MGKNQRESLRMRLRYNEPGSENKRINYFKLNQGYDITEDDSEYMDEQDSYKAFKKIRKYKTKSKEDKVTCDNLEVLLQWKGSINCQSYETDQKKIVVLKKILGTDLSQYAKGVQGIFIDNLFKKDLKNLDISKKLISNGILFIWSDKSLINEILETMENKGFTYIENLVVVQLSLEQALEELNKHMKIEQTEDAVLDNLDFLQQKVQVKDLILHRPSKVANQSKQVLIMFRKFDEQKSQLELRHQRTPDVLFDIVNNGKSCLKTKEYIYQTIETLLPKSQLMEIFAQKDQPRKGWISVCENK
B10: Paramecium tetraurelia MTA9 (PteMTA9), untagged Y164A (protein)
chain: MGKNQRESLRMRLRYNEPGSENKRINYFKLNQGYDITEDDSEYMDEQDSYKAFKKIRKYKTKSKEDKVTCDNLEVLLQWKGSINCQSYETDQKKIVVLKKILGTDLSQYAKGVQGIFIDNLFKKDLKNLDISKKLISNGILFIWSDKSLINEILETMENKGFTAIENLVVVQLSLEQALEELNKHMKIEQTEDAVLDNLDFLQQKVQVKDLILHRPSKVLNQSKQVLIMFRKFDEQKSQLELRHQRTPDVLFDIVNNGKSCLKTKEYIYQTIETLLPKSQLMEIFAQKDQPRKGWISVCENK
B11: His6GST-Tthp2 H39A (protein)
chain: MKKNGKSQNQPLDFTQYAKNMRKDLSNQDICLEDGALNASYFLTKKGQYWTPLNQKALQRGIELFGVGNWKEINYDEFSGKANIVELELRTCMILGINDITEYYGKKISEEEQEEIKKSNIAKGKKENKLKDNIYQKLQQMQ
B12: His6GST-Tthp2 Y41A (protein)
chain: MKKNGKSQNQPLDFTQYAKNMRKDLSNQDICLEDGALNHSAFLTKKGQYWTPLNQKALQRGIELFGVGNWKEINYDEFSGKANIVELELRTCMILGINDITEYYGKKISEEEQEEIKKSNIAKGKKENKLKDNIYQKLQQMQ
B13: His6GST-Tthp2 S26A (protein)
chain: MKKNGKSQNQPLDFTQYAKNMRKDLANQDICLEDGALNHSYFLTKKGQYWTPLNQKALQRGIELFGVGNWKEINYDEFSGKANIVELELRTCMILGINDITEYYGKKISEEEQEEIKKSNIAKGKKENKLKDNIYQKLQQMQ
B14: His6GST-Tthp2 R22A (protein)
chain: MKKNGKSQNQPLDFTQYAKNMAKDLSNQDICLEDGALNHSYFLTKKGQYWTPLNQKALQRGIELFGVGNWKEINYDEFSGKANIVELELRTCMILGINDITEYYGKKISEEEQEEIKKSNIAKGKKENKLKDNIYQKLQQMQ
B15: His6GST-Tthp2 D24A (protein)
chain: MKKNGKSQNQPLDFTQYAKNMRKALSNQDICLEDGALNHSYFLTKKGQYWTPLNQKALQRGIELFGVGNWKEINYDEFSGKANIVELELRTCMILGINDITEYYGKKISEEEQEEIKKSNIAKGKKENKLKDNIYQKLQQMQ
B16: His6GST-Tthp2 Y17A (protein)
chain: MKKNGKSQNQPLDFTQAAKNMRKDLSNQDICLEDGALNHSYFLTKKGQYWTPLNQKALQRGIELFGVGNWKEINYDEFSGKANIVELELRTCMILGINDITEYYGKKISEEEQEEIKKSNIAKGKKENKLKDNIYQKLQQMQ

Molecular target: T1, Tetrahymena thermophila MTA1 (TthMTA1), untagged
T1 chain: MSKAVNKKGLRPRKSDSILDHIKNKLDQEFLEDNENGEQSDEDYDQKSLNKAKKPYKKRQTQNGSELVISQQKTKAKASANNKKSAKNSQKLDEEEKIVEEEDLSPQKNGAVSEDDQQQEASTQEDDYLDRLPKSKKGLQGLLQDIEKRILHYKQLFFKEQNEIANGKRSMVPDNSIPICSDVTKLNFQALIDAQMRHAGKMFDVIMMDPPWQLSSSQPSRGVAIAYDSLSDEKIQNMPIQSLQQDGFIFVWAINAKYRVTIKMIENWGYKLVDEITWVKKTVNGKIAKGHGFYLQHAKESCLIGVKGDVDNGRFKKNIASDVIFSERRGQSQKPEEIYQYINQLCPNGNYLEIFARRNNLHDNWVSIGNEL
Experiment: GST pull-down
Conditions: chain shown with the change;; parent: 100

Row | Molecule | percent of parent [%]
1 | B1 | 78
2 | B2 | 0
3 | B3 | 48
4 | B4 | 78
5 | B5 | 0
6 | B6 | 47
7 | B7 | 0

Molecular target: T2, GST-MTA1 (residues 171-372)
T2 chain: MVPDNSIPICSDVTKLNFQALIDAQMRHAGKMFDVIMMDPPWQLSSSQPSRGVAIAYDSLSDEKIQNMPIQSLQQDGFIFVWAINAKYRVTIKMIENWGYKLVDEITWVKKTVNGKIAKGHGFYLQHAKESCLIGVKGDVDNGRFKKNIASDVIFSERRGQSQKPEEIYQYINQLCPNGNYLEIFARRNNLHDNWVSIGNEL
Experiment: GST pull-down
Conditions: chain shown with the change;; parent: 100

Row | Molecule | percent of parent [%]
8 | B8 | 45
9 | B9 | 73
10 | B10 | 0

Molecular target: T1, Tetrahymena thermophila MTA1 (TthMTA1), …
Experiment: GST pull-down, gray scanning of bound MTA1 band
Conditions: chain shown with the change;; parent: 100

Row | Molecule | percent of parent [%]
11 | B11 | 0
12 | B12 | 0
13 | B13 | 50
14 | B14 | 0
15 | B15 | 77
16 | B16 | 0

What follows are molecules tested against Paramecium tetraurelia MTA9 (PteMTA9), untagged (assay: GST pull-down). Conditions: parent: 100.

Row | Molecule | percent of parent [%]
17 | GST-MTA1 (residues 171-372) Y294A | 12
18 | GST-MTA1 (residues 171-372) H297A | 97
19 | GST-MTA1 (residues 171-372) L295A | 7
20 | GST-MTA1 (residues 171-372) Q296A | 95
